Results as given in US20210388087A1 (Chugai, published 2021).
Where a chain is given by its changes, count along the chain named. Names may count otherwise. Each block holds one binder with its values, some of them ahead of it.

Legend:
[1] = molecular target: human CD137 on HDLM-2 cells (human, UniProt Q07011 24-255); experiment: cell-based or functional assay
Human CD137 ECD = molecular target: T1, Human CD137 ECD (human); experiment: SPR, vs parent H183/L072
T1 construct: also called 4-1BB
T1 sequence (chain, as listed by the source limits assumed): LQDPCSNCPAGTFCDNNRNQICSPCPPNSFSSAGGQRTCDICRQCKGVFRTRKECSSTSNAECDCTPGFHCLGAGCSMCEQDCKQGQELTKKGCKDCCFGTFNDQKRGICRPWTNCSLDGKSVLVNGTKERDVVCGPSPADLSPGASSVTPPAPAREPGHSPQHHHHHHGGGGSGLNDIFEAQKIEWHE

Sequence of human CD137 on HDLM-2 cells (Q07011 24-255): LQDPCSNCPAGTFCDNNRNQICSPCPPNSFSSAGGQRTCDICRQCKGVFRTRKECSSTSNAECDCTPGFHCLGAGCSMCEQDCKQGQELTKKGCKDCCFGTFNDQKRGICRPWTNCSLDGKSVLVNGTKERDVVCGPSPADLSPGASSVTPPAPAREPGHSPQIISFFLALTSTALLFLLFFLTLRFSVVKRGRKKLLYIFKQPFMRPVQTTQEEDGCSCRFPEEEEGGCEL

B1: GPC3 ERY22-B (bispecific antibody, human IgG1, kappa, L234A L235A, N297A)
heavy 1: DIVMTQSPLSLPVTPGEPASISCRSSQSLVHSNRNTYLHWYQQKPGQAPRLLIYKVSNRFSGVPDRFSGSGSGTDFTLKISRVEAEDVGVYYCSQNTHVPPTFGQGTKLEIKSSASTKGPSVFPLAPSSKSTSGGTAALGCLVKDYFPEPVTVSWNSGALTSGVHTFPAVLQSSGLYSLSSVVTVPSSSLGTQTYICNVNHKPSNTKVDKKVEPKSCDKTHTCPPCPAPEAAGGPSVFLFPPKPKDTLMISRTPEVTCVVVDVSHEDPEVKFNWYVDGVEVHNAKTKPREEQYASTYRVVSVLTVLHQDWLNGKEYKCKVSNKALPAPIEKTISKAKGQPREPQVCTLPPSRDELTKNQVSLWCLVKGFYPSDIAVEWESNGQPENNYKTTPPVLDSDGSFFLYSKLTVDKSRWQQGNVFSCSVMHEALHNHYTQKSLSLSPHHHHHHHH
light 1: QVQLVQSGAEVKKPGASVKVSCKASGYTFTDYEMHWIRQPPGQGLEWIGAIDPKTGDTAYSQKFKGRVTLTADKSTSTAYMELSSLTSEDTAVYYCTRFYSYTYWGQGTLVTVSSASVAAPSVFIFPPSDEQLKSGTASVVCLLNNFYPREAKVQWKVDNALQSGNSQESVTEQDSKDSTYSLSSTLTLSKADYEKHKVYACEVTHQGLSSPVTKSFNRGEC
heavy 2: QVQLQQWGAGLLKPSETLSLTCAVYGGSFSGYYWSWIRQSPEKGLEWIGEINHGGYVTYNPSLESRVTISVDTSKNQFSLKLSSVTAADTAVYYCARDYGPGNYDWYFDLWGRGTLVTVSSASTKGPSVFPLAPSSKSTSGGTAALGCLVKDYFPEPVTVSWNSGALTSGVHTFPAVLQSSGLYSLSSVVTVPSSSLGTQTYICNVNHKPSNTKVDKKVEPKSCDKTHTCPPCPAPEAAGGPSVFLFPPKPKDTLMISRTPEVTCVVVDVSHEDPEVKFNWYVDGVEVHNAKTKPREEQYASTYRVVSVLTVLHQDWLNGKEYKCKVSNKALPAPIEKTISKAKGQPREPQVYTLPPSRCELTKNQVSLSCAVKGFYPSDIAVEWESNGQPENNYKTTPPVLDSDGSFFLVSKLTVDKSRWQQGNVFSCSVMHEALHNHYTQKSLSLSP
light 2: not shown
Agonistic activity compared to B, antibody 6 ug/mL [1]: 100%
Agonistic activity compared to B, antibody 30 ug/mL [1]: 100%
Agonistic activity compared to Ctrl, antibody 6 ug/mL [1]: 347%
Agonistic activity compared to Ctrl, antibody 30 ug/mL [1]: 380%
hIL-6 (pg/mL), antibody 6 ug/mL [1]: 4520 pg/mL
hIL-6 (pg/mL), antibody 30 ug/mL [1]: 4340 pg/mL

B3: GPC3 ERY22-dBBDu_167/L091 (bispecific antibody, human IgG1, kappa, L234A L235A, N297A)
heavy 1: B1 heavy 1
light 1: B1 light 1
heavy 2: QVQLVESGGGLVQPGRSLRLSCAASGFTFSNAWMHWVRQAPGKGLEWVAQIKDKGNLYAAYYAPSVKGRFTISRDDSKNSIYLQMNSLKTEDTAVYYCHYVHYASAGGGLPGFGVDAWGQGTTVTVSSASTKGPSVFPLAPSSKSTSGGTAALGCLVKDYFPEPVTVSWNSGALTSGVHTFPAVLQSSGLYSLSSVVTVPSSSLGTQTYICNVNHKPSNTKVDKKVEPKSCDKTHTCPPCPAPEAAGGPSVFLFPPKPKDTLMISRTPEVTCVVVDVSHEDPEVKFNWYVDGVEVHNAKTKPREEQYASTYRVVSVLTVLHQDWLNGKEYKCKVSNKALPAPIEKTISKAKGQPREPQVYTLPPSRCELTKNQVSLSCAVKGFYPSDIAVEWESNGQPENNYKTTPPVLDSDGSFFLVSKLTVDKSRWQQGNVFSCSVMHEALHNHYTQKSLSLSPDYKDDDDK
light 2: DIVMTQSPLSLPVTPGEPASISCSASESLLHNNRHTYLHWYQQKPGQAPRLLIYRVSNRFNGVPDRFSGSGSGTDFTLKISRVEAEDVGVYYCGQGTQVPFTFGQGTKLEIKRTVAAPSVFIFPPSDEQLKSGTASVVCLLNNFYPREAKVQWKVDNALQSGNSQESVTEQDSKDSTYSLSSTLTLSKADYEKHKVYACEVTHQGLSSPVTKSFNRGEC
Agonistic activity compared to B, antibody 6 ug/mL [1]: -2.21%
Agonistic activity compared to B, antibody 30 ug/mL [1]: 1.1%
Agonistic activity compared to Ctrl, antibody 6 ug/mL [1]: -7.68%
Agonistic activity compared to Ctrl, antibody 30 ug/mL [1]: 4.19%
hIL-6 (pg/mL), antibody 6 ug/mL [1]: 935 pg/mL
hIL-6 (pg/mL), antibody 30 ug/mL [1]: 944 pg/mL

B6: dBBDu183H V100cE / dBBDu072L (antibody, name in Kabat numbering, V domains shown)
VH: QVQLVESGGGLVQPGRSLRLSCAASGFTFSNAWMHWVRQAPGKGLEWVAQIKDKGNAYAAYYAPSVKGRFTISRDDSKNSIYLQMNSLKTEDTAVYYCHYVHYASASTELPAFGVDAWGQGTTVTVSS
VL: DIVMTQSPLSLPVTPGEPASISCQASQELVHMNRNTYLHWYQQKPGQAPRLLIYKVSNRFPGVPDRFSGSGSGTDFTLKISRVEAEDVGVYYCAQGTSVPFTFGQGTKLEIK
notes: as m1, one VH change
fold change of affinity (Human CD137 ECD): 0.5 fold

B9: dBBDu183H Y94S / dBBDu072L (antibody, name in Kabat numbering, V domains shown)
VH: B6 VH with Y100S, E109V
VL: B6 VL
notes: as m1, one VH change
fold change of affinity (Human CD137 ECD): 1.4 fold

B15: dBBDu183H V63T / dBBDu072L (antibody, name in Kabat numbering, V domains shown)
VH: B6 VH with V66T, E109V
VL: B6 VL
notes: as m1, one VH change
fold change of affinity (Human CD137 ECD): 0.9 fold

B16: dBBDu183H V100cH / dBBDu072L (antibody, name in Kabat numbering, V domains shown)
VH: B6 VH with E109H
VL: B6 VL
notes: as m1, one VH change
fold change of affinity (Human CD137 ECD): 0.5 fold

B17: dBBDu183H Y97W / dBBDu072L (antibody, name in Kabat numbering, V domains shown)
VH: B6 VH with Y103W, E109V
VL: B6 VL
notes: as m1, one VH change
fold change of affinity (Human CD137 ECD): 0.8 fold

B20: dBBDu183H V100cS / dBBDu072L (antibody, name in Kabat numbering, V domains shown)
VH: B6 VH with E109S
VL: B6 VL
notes: as m1, one VH change
fold change of affinity (Human CD137 ECD): 0.5 fold

B21: dBBDu183H Y94D / dBBDu072L (antibody, name in Kabat numbering, V domains shown)
VH: B6 VH with Y100D, E109V
VL: B6 VL
notes: as m1, one VH change
fold change of affinity (Human CD137 ECD): 0.2 fold

B22: dBBDu183H V100cQ / dBBDu072L (antibody, name in Kabat numbering, V domains shown)
VH: B6 VH with E109Q
VL: B6 VL
notes: as m1, one VH change
fold change of affinity (Human CD137 ECD): 1.4 fold

B26: dBBDu183H V100cK / dBBDu072L (antibody, name in Kabat numbering, V domains shown)
VH: B6 VH with E109K
VL: B6 VL
notes: as m1, one VH change
fold change of affinity (Human CD137 ECD): 0.5 fold

The next lines start with the values.

Agonistic activity compared to B, antibody 6 ug/mL [1]: 3.21%
Agonistic activity compared to B, antibody 30 ug/mL [1]: 15.8%
Agonistic activity compared to Ctrl, antibody 6 ug/mL [1]: 11.1%
Agonistic activity compared to Ctrl, antibody 30 ug/mL [1]: 59.8%
hIL-6 (pg/mL), antibody 6 ug/mL [1]: 1130 pg/mL
hIL-6 (pg/mL), antibody 30 ug/mL [1]: 1450 pg/mL
B2: GPC3 ERY22-dBBDu_183/L072 (bispecific antibody, human IgG1, kappa, L234A L235A, N297A)
heavy 1: B1 heavy 1
light 1: B1 light 1
heavy 2: B3 heavy 2 with L57A, G107S, G108T, G109V, G112A
light 2: B3 light 2 with S24Q, E27Q, S28E, L30V, N32M, H35N, R55K, N61P, G94A, Q98S

Agonistic activity compared to B, antibody 6 ug/mL [1]: -1.27%
Agonistic activity compared to B, antibody 30 ug/mL [1]: 6.51%
Agonistic activity compared to Ctrl, antibody 6 ug/mL [1]: -4.41%
Agonistic activity compared to Ctrl, antibody 30 ug/mL [1]: 24.7%
hIL-6 (pg/mL), antibody 6 ug/mL [1]: 968 pg/mL
hIL-6 (pg/mL), antibody 30 ug/mL [1]: 1130 pg/mL
B4: GPC3 ERY22-dBBDu_183/L063 (bispecific antibody, human IgG1, kappa, L234A L235A, N297A)
heavy 1: B1 heavy 1
light 1: B1 light 1
heavy 2: B3 heavy 2 with L57A, G107S, G108T, G109V, G112A
light 2: B3 light 2 with S24R, A25S, E27Q, S28E, L30V, N32T, R55K, N61P, G94A

fold change of affinity (Human CD137 ECD): 1 fold
B5: dBBDu183H V63R / dBBDu072L (antibody, name in Kabat numbering, V domains shown)
VH: B6 VH with V66R, E109V
VL: B6 VL
notes: as m1, one VH change

fold change of affinity (Human CD137 ECD): 0.6 fold
B7: dBBDu183H V100cW / dBBDu072L (antibody, name in Kabat numbering, V domains shown)
VH: B6 VH with E109W
VL: B6 VL
notes: as m1, one VH change

fold change of affinity (Human CD137 ECD): 0.2 fold
B8: dBBDu183H V100iT / dBBDu072L (antibody, name in Kabat numbering, V domains shown)
VH: B6 VH with E109V, V115T
VL: B6 VL
notes: as m1, one VH change

fold change of affinity (Human CD137 ECD): 0.9 fold
B10: dBBDu183H V63S / dBBDu072L (antibody, name in Kabat numbering, V domains shown)
VH: B6 VH with V66S, E109V
VL: B6 VL
notes: as m1, one VH change

fold change of affinity (Human CD137 ECD): 0.3 fold
B11: dBBDu183H Y94Q / dBBDu072L (antibody, name in Kabat numbering, V domains shown)
VH: B6 VH with Y100Q, E109V
VL: B6 VL
notes: as m1, one VH change

fold change of affinity (Human CD137 ECD): 0.6 fold
B12: dBBDu183H Y94T / dBBDu072L (antibody, name in Kabat numbering, V domains shown)
VH: B6 VH with Y100T, E109V
VL: B6 VL
notes: as m1, one VH change

fold change of affinity (Human CD137 ECD): 1.8 fold
B13: dBBDu183H Y94F / dBBDu072L (antibody, name in Kabat numbering, V domains shown)
VH: B6 VH with Y100F, E109V
VL: B6 VL
notes: as m1, one VH change

fold change of affinity (Human CD137 ECD): 0.7 fold
B14: dBBDu183H V100cR / dBBDu072L (antibody, name in Kabat numbering, V domains shown)
VH: B6 VH with E109R
VL: B6 VL
notes: as m1, one VH change

fold change of affinity (Human CD137 ECD): 0.6 fold
B18: dBBDu183H V100cY / dBBDu072L (antibody, name in Kabat numbering, V domains shown)
VH: B6 VH with E109Y
VL: B6 VL
notes: as m1, one VH change

fold change of affinity (Human CD137 ECD): 0.1 fold
B19: dBBDu183H Y94N / dBBDu072L (antibody, name in Kabat numbering, V domains shown)
VH: B6 VH with Y100N, E109V
VL: B6 VL
notes: as m1, one VH change

fold change of affinity (Human CD137 ECD): 0.5 fold
B23: dBBDu183H V100cT / dBBDu072L (antibody, name in Kabat numbering, V domains shown)
VH: B6 VH with E109T
VL: B6 VL
notes: as m1, one VH change

fold change of affinity (Human CD137 ECD): 1.8 fold
B24: dBBDu183H Y97F / dBBDu072L (antibody, name in Kabat numbering, V domains shown)
VH: B6 VH with Y103F, E109V
VL: B6 VL
notes: as m1, one VH change

fold change of affinity (Human CD137 ECD): 1 fold
B25: dBBDu183H V63W / dBBDu072L (antibody, name in Kabat numbering, V domains shown)
VH: B6 VH with V66W, E109V
VL: B6 VL
notes: as m1, one VH change
